The supplement of paper PMC9732359
± gives the uncertainty stated by the source.

Assay: protein stability index of a GFP-peptide fusion (yeast GPS) (PSI 1-4); higher = more stable; sorted into four equal gates, so the index is relative within each strain
Outline: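 Plasmids isolated from each sorting gate were PCR-amplified and Illumina-sequenced, and barcodes assigned the reads to strains. The gates, four of equal size, were set by GFP/Cherry fluorescence ratio on mid-log cultures in leucine-free medium. These cultures were yeast carrying a pooled library of tiled 17-residue yeast protein peptides fused downstream of GFP on a plasmid that also expresses Cherry. The protein stability index is the sum of every gate's read frequency times its gate number.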

MQVYLVPIERVAQLKPF [RPC37]
protein stability index (doa10∆): 1.9 ± 0.079
protein stability index (pdr5∆): 1.77 ± 0.065
protein stability index (san1∆): 1.87 ± 0.063
protein stability index (ubr1∆): 2.54 ± 0.058

THEQWSNIQRNVLFLRL [SRP72]
protein stability index (doa10∆): 2.67 ± 0.062
protein stability index (pdr5∆): 2.38 ± 0.062
protein stability index (san1∆): 1.96 ± 0.077
protein stability index (ubr1∆): 2.45 ± 0.041

AIKDKLEQDLHFENAKV [YIL149C/MLP2]
protein stability index (doa10∆): 3.09 ± 0.066
protein stability index (pdr5∆): 3.29 ± 0.075
protein stability index (san1∆): 3.35 ± 0.069
protein stability index (ubr1∆): 3.16 ± 0.079

EIFHLLQPLEEGLIIDT [SIN4]
protein stability index (doa10∆): 1.99 ± 0.2
protein stability index (pdr5∆): 2.13 ± 0.11
protein stability index (san1∆): 2.21 ± 0.22
protein stability index (ubr1∆): 1.97 ± 0.093

WDDHTKKPLSMALNKVL [CDC53]
protein stability index (doa10∆): 1.99 ± 0.069
protein stability index (pdr5∆): 2.29 ± 0.076
protein stability index (san1∆): 2.36 ± 0.056
protein stability index (ubr1∆): 1.94 ± 0.048

KWPEYVRVQRQKKILSI [RPL8A]
protein stability index (doa10∆): 1.2 ± 0.06
protein stability index (pdr5∆): 1.5 ± 0.055
protein stability index (san1∆): 1.15 ± 0.098
protein stability index (ubr1∆): 1.23 ± 0.038

TRNEQTTIQTEKVRPTP [MCD1]
protein stability index (doa10∆): 2.82 ± 0.04
protein stability index (pdr5∆): 2.99 ± 0.046
protein stability index (san1∆): 2.88 ± 0.036
protein stability index (ubr1∆): 3 ± 0.031

NVASLVRVQFQFTGFLL [GRR1]
protein stability index (doa10∆): 1.85 ± 0.072
protein stability index (pdr5∆): 1.73 ± 0.075
protein stability index (san1∆): 1.48 ± 0.1
protein stability index (ubr1∆): 1.55 ± 0.058

KQQEQLEQQKQPTGLLK [YMR153W/NUP53]
protein stability index (doa10∆): 3.35 ± 0.13
protein stability index (pdr5∆): 3.12 ± 0.14
protein stability index (san1∆): 2.97 ± 0.069
protein stability index (ubr1∆): 3.15 ± 0.065

IEKWTANLLPARQFGYV [RPS22A]
protein stability index (doa10∆): 1.6 ± 0.075
protein stability index (pdr5∆): 1.92 ± 0.088
protein stability index (san1∆): 1.8 ± 0.15
protein stability index (ubr1∆): 2.14 ± 0.17

VTQSNILSQQFDKIIKI [SRB8]
protein stability index (doa10∆): 2.72 ± 0.07
protein stability index (pdr5∆): 2.96 ± 0.071
protein stability index (san1∆): 2.95 ± 0.056
protein stability index (ubr1∆): 2.89 ± 0.045

MDVDSVKTTLVSLTQLR [RPC82]
protein stability index (doa10∆): 2.57 ± 0.1
protein stability index (pdr5∆): 1.81 ± 0.074
protein stability index (san1∆): 2.08 ± 0.12
protein stability index (ubr1∆): 1.5 ± 0.093

KSAISNNFRESDIIILK [SIR4]
protein stability index (doa10∆): 3 ± 0.08
protein stability index (pdr5∆): 2.56 ± 0.065
protein stability index (san1∆): 2.96 ± 0.06
protein stability index (ubr1∆): 3.09 ± 0.059

RFKNSVKWYHFDHNDKK [PRE7]
protein stability index (doa10∆): 2.32 ± 0.057
protein stability index (pdr5∆): 2.76 ± 0.064
protein stability index (san1∆): 2.69 ± 0.043
protein stability index (ubr1∆): 2.62 ± 0.043

FLERKCVHMVYEYAEHD [SSN3]
protein stability index (doa10∆): 1.71 ± 0.061
protein stability index (pdr5∆): 1.67 ± 0.071
protein stability index (san1∆): 1.69 ± 0.09
protein stability index (ubr1∆): 1.83 ± 0.046

ARGTIEIVSDVKVVDAG [RPP0]
protein stability index (doa10∆): 1.61 ± 0.1
protein stability index (pdr5∆): 2.21 ± 0.07
protein stability index (san1∆): 1.96 ± 0.15
protein stability index (ubr1∆): 1.77 ± 0.095

THHTDIIPIVDYAQLDH [ARP9]
protein stability index (doa10∆): 2.58 ± 0.051
protein stability index (pdr5∆): 2.39 ± 0.041
protein stability index (san1∆): 2.66 ± 0.039
protein stability index (ubr1∆): 2.61 ± 0.031

VKEEYDIWQSRDQGNDS [YIL149C/MLP2]
protein stability index (pdr5∆): 3.5 ± 0.19
protein stability index (san1∆): 3.33 ± 0.074
protein stability index (ubr1∆): 3.34 ± 0.11

KADIGKPGRMPFNFTVT [CDC53]
protein stability index (doa10∆): 2.33 ± 0.042
protein stability index (pdr5∆): 2.75 ± 0.048
protein stability index (san1∆): 2.73 ± 0.058
protein stability index (ubr1∆): 2.89 ± 0.05

DKIHARARGPMQVLTRQ [RPB2]
protein stability index (doa10∆): 3.16 ± 0.13
protein stability index (pdr5∆): 3.22 ± 0.12
protein stability index (san1∆): 2.97 ± 0.09
protein stability index (ubr1∆): 3.21 ± 0.19

LESSITDAGVLALKLEL [YJL039C/NUP192]
protein stability index (doa10∆): 1.57 ± 0.06
protein stability index (pdr5∆): 1.48 ± 0.061
protein stability index (san1∆): 1.3 ± 0.13
protein stability index (ubr1∆): 1.57 ± 0.085

KRLNFSFVGDYMHDTEL [GRR1]
protein stability index (doa10∆): 2.55 ± 0.065
protein stability index (pdr5∆): 1.89 ± 0.073
protein stability index (san1∆): 2.47 ± 0.11
protein stability index (ubr1∆): 3.22 ± 0.085

LVSLFEDTNLAAIHAKR [HHT1]
protein stability index (doa10∆): 2.9 ± 0.17
protein stability index (pdr5∆): 2.67 ± 0.17
protein stability index (san1∆): 2.56 ± 0.12
protein stability index (ubr1∆): 2.81 ± 0.063

LKEILNVAKNMKTPSLT [RPO21]
protein stability index (doa10∆): 3.33 ± 0.12
protein stability index (pdr5∆): 3.06 ± 0.11
protein stability index (san1∆): 3.1 ± 0.072
protein stability index (ubr1∆): 3.47 ± 0.12

EEHHEEEPSRVDPEQEA [RPT4]
protein stability index (doa10∆): 3.09 ± 0.082
protein stability index (pdr5∆): 3.28 ± 0.094
protein stability index (san1∆): 3.14 ± 0.052
protein stability index (ubr1∆): 3.26 ± 0.064

PDYYVSILSFVDKELLE [RPT2]
protein stability index (doa10∆): 2.6 ± 0.054
protein stability index (pdr5∆): 2.55 ± 0.048
protein stability index (san1∆): 2.39 ± 0.05
protein stability index (ubr1∆): 2.59 ± 0.046

TPSTSSNGEFIPHIFYS [CSE2]
protein stability index (doa10∆): 2.36 ± 0.054
protein stability index (pdr5∆): 2.44 ± 0.043
protein stability index (san1∆): 2.62 ± 0.044
protein stability index (ubr1∆): 2.82 ± 0.048

TVYISSIALLKMLKHGR [RPN11]
protein stability index (doa10∆): 2.25 ± 0.085
protein stability index (pdr5∆): 2.09 ± 0.079
protein stability index (san1∆): 2.65 ± 0.054
protein stability index (ubr1∆): 2.79 ± 0.066

MEKLDAKLNHLKKLEKF [SWI3]
protein stability index (doa10∆): 2.81 ± 0.13
protein stability index (pdr5∆): 2.7 ± 0.1
protein stability index (san1∆): 3.02 ± 0.12

EIENLDKELRKTKFQYK [YIL149C/MLP2]
protein stability index (doa10∆): 2.73 ± 0.081
protein stability index (pdr5∆): 3.02 ± 0.086
protein stability index (san1∆): 3.07 ± 0.067
protein stability index (ubr1∆): 2.92 ± 0.074

RQQQENSSKIITLDLSN [SMC1]
protein stability index (doa10∆): 3.22 ± 0.11
protein stability index (pdr5∆): 3.35 ± 0.066
protein stability index (san1∆): 3.18 ± 0.066
protein stability index (ubr1∆): 3.18 ± 0.061

EIDHQEYSPEILQIREE [RRP6]
protein stability index (doa10∆): 3.19 ± 0.067
protein stability index (pdr5∆): 3.06 ± 0.069
protein stability index (san1∆): 3.21 ± 0.094
protein stability index (ubr1∆): 3.18 ± 0.048

GKHNLTIWCVCDSYLDA [BRR2]
protein stability index (doa10∆): 2.04 ± 0.059
protein stability index (pdr5∆): 2.26 ± 0.083
protein stability index (san1∆): 2.73 ± 0.093
protein stability index (ubr1∆): 2.31 ± 0.045

RVADEDANLNDLPETGF [IRR1]
protein stability index (doa10∆): 3 ± 0.095
protein stability index (pdr5∆): 3.22 ± 0.11
protein stability index (san1∆): 3.44 ± 0.078
protein stability index (ubr1∆): 3.13 ± 0.089

LSRLSTASKIIVIDVDY [MED1]
protein stability index (doa10∆): 2.07 ± 0.058
protein stability index (pdr5∆): 2.3 ± 0.067
protein stability index (san1∆): 2.2 ± 0.051
protein stability index (ubr1∆): 2.41 ± 0.074

KEISTRVFNAKDTTGPK [YCS4]
protein stability index (doa10∆): 3.04 ± 0.11
protein stability index (pdr5∆): 2.91 ± 0.13
protein stability index (san1∆): 3.21 ± 0.081
protein stability index (ubr1∆): 2.99 ± 0.089

QQRFQALQQQQQQQQNQ [SWI1]
protein stability index (doa10∆): 2.05 ± 0.05
protein stability index (pdr5∆): 2.07 ± 0.046
protein stability index (san1∆): 2.25 ± 0.052
protein stability index (ubr1∆): 2.04 ± 0.059

LQYANNAVISHANAAAV [SIN4]
protein stability index (doa10∆): 1.83 ± 0.047
protein stability index (pdr5∆): 1.99 ± 0.041
protein stability index (san1∆): 1.91 ± 0.049
protein stability index (ubr1∆): 1.92 ± 0.03

EVSTSTSMTGDANLLEE [SWI3]
protein stability index (doa10∆): 3.09 ± 0.13
protein stability index (pdr5∆): 3.23 ± 0.11
protein stability index (san1∆): 3.24 ± 0.042
protein stability index (ubr1∆): 3.3 ± 0.041

IGFITSGTYHLNCGNGM [POP1]
protein stability index (doa10∆): 2.56 ± 0.1
protein stability index (pdr5∆): 2.93 ± 0.082
protein stability index (san1∆): 2.09 ± 0.093
protein stability index (ubr1∆): 2.92 ± 0.048

LGHKELKVRKGHIAKLM [RPB2]
protein stability index (doa10∆): 2.54 ± 0.066
protein stability index (pdr5∆): 2.53 ± 0.064
protein stability index (san1∆): 1.97 ± 0.1
protein stability index (ubr1∆): 2.72 ± 0.047

AEYAQLLAKRLSERKAE [RPS6A]
protein stability index (doa10∆): 2.41 ± 0.051
protein stability index (pdr5∆): 2.11 ± 0.048
protein stability index (san1∆): 2.16 ± 0.082
protein stability index (ubr1∆): 2.28 ± 0.038

APLKALVQEQVREFQRR [BRR2]
protein stability index (doa10∆): 1.26 ± 0.1
protein stability index (pdr5∆): 1.24 ± 0.092
protein stability index (san1∆): 1.3 ± 0.13
protein stability index (ubr1∆): 1.26 ± 0.13

IAAYIRRHRNPDLQFIV [SMC1]
protein stability index (doa10∆): 1.16 ± 0.048
protein stability index (pdr5∆): 1.21 ± 0.047
protein stability index (san1∆): 1.2 ± 0.079
protein stability index (ubr1∆): 1.07 ± 0.04
